# Measured values published in patent US20110135573A1 (DYAX, published 2011).
# How the values were obtained:
# [1] = target: T1, Human MMP-9 catalytic domain (BIOMOL, SE-244) (human, UniProt P14780 107-457, limits assumed); test: Ki,app, enzyme inhibition assay (fluorogenic peptide substrate), IgG
# T1 construct: domain: catalytic domain; also called Cat-huMMP-9; cat-huMMP-9
# [2] = target: T2, human MMP-2 (Biomol #SE-237) (human, UniProt P08253 110-452, limits assumed); test: as above
# T2 construct: also called hMMP-2
# T2 sequence (P08253 110-452 limits assumed): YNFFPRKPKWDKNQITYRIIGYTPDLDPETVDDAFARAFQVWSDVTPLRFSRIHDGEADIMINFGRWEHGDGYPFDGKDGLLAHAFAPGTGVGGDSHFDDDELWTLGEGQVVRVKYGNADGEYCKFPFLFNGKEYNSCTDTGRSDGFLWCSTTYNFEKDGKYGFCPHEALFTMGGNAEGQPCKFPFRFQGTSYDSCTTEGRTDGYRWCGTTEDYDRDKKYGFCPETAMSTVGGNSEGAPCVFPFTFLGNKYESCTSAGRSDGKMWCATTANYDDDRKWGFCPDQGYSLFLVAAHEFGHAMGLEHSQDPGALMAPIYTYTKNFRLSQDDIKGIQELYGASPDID
# [3] = target: T3, Mouse MMP-9 (R&D, 909-MM), APMA-activated (mouse, UniProt P41245 108-730, limits assumed); test: as above
# T3 construct: also called mMMP-9; mouse MMP-9 (R&D Systems #909-MM-010)
# T3 sequence (P41245 108-730 limits assumed): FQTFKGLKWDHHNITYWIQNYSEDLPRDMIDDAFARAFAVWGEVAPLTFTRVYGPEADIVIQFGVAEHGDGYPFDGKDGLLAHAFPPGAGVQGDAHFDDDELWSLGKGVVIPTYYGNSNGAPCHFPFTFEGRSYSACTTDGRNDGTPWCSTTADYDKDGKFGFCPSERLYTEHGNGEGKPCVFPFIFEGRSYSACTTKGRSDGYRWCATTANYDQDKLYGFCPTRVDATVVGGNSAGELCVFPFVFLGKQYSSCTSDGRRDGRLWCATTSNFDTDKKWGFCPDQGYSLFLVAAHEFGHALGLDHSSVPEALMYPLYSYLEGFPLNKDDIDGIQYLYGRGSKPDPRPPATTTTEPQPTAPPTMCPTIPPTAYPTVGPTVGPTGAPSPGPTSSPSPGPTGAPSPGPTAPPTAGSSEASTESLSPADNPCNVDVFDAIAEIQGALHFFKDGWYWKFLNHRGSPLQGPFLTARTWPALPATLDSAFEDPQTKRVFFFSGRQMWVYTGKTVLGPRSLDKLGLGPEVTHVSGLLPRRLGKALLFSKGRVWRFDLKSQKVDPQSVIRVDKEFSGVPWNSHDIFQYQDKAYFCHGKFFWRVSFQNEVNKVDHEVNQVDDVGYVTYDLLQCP
# [4] = target: T1, Human MMP-9 catalytic domain (BIOMOL, …); test: Ki,app, enzyme inhibition assay (fluorogenic peptide substrate), small-scale sFab
# Experimental: (§1) Target enzymes were incubated with inhibitor for two hours at 30° C. in reaction buffer (50 mM Tris-HCl pH 7.5, 150 mM NaCl, 5 mM CaCl₂, 0.05% Brij-35) in a total volume of 90 μL using a white 96 well plate (Costar). […] An anti-MMP-2 antibody (R&D Systems polyclonal IgG #AF902) was similarly tested with 200 nM as the highest inhibitor concentration. Reactions were initiated by the addition of 10 μL of a 10× concentrated stock of substrate, Mca-Lys-Pro-Leu-Gly-Leu-Dap(Dnp)-Ala-Arg-NH2, (Bachem M-2350), at final concentration of 10 μM and monitored at 30° C. in a Molecular Devices' Gemini fluorescence plate reader. The excitation and emission wavelengths were set at 328 nm and 393 nm, respectively. Kinetic data were acquired by the increase in fluorescence, and initial rates for each condition were plotted against the total inhibitor concentration. Reactions were performed in duplicates and all data replicates were plotted in a single graph and fit to the following equation¹: […]
# [5] = target: T2, human MMP-2 (Biomol #SE-237); test: as above
# Experimental: as §1
# [6] = target: T1, Human MMP-9 catalytic domain (BIOMOL, …); test: Ki,app, enzyme inhibition assay (fluorogenic peptide substrate), medium-scale sFab
# Experimental: as §1
# [7] = target: T2, human MMP-2 (Biomol #SE-237); test: as above
# Experimental: as §1
# [8] = target: T3, Mouse MMP-9 (R&D, 909-MM), …; test: Ki,app, enzyme inhibition assay (fluorogenic peptide substrate), small-scale sFab
# Experimental: as §1
# T1 sequence (P14780 107-457 limits assumed): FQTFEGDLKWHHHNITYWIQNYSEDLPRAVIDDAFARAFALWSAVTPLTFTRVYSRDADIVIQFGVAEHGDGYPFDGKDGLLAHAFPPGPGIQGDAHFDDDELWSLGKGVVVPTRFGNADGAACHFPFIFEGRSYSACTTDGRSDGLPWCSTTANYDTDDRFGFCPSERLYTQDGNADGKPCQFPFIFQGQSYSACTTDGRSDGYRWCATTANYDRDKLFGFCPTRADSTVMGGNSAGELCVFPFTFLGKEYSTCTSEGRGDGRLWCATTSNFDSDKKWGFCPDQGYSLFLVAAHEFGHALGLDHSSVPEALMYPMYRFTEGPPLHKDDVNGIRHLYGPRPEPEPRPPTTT
Ki [1] [nM],Ki [2] [nM],Ki [3] [nM],Ki [4] [nM],Ki [5] [nM],Ki [6] [nM],Ki [7] [nM],Ki [8] [nM],Binder
0.08,0.31,0.24,,,,,,"X0106-B02 (antibody, V domains shown, Produced and tested as IgG1; germlined, optimized version of M0276-F11) VH: EVQLLESGGGLVQPGGSLRLSCAASGFTFSWYDMWWVRQAPGKGLEWVSVIYSSGGPTFYADSVKGRFTISRDNSKNTLYLQMNSLRAEDTAVYYCAKDRAYGDYVGWNGFDYWGQGTLVTVSS VL: EIVLTQSPATLSLSPGERATLSCRASQSISSFLAWYQQKPGQAPRLLIYDASYRATGIPARFSGSGSGTDFTLTISSLEPEDFAVYYCQQRGNWPITFGQGTRLEIK"
0.13,0.38,0.23,,,,,,"X0106-E04 (antibody, V domains shown, Produced and tested as IgG1; germlined, optimized version of M0275-D03; also called X0106-E4) VH: EVQLLESGGGLVQPGGSLRLSCAASGFTFSQYDMWWVRQAPGKGLEWVSVIYPSGTTFYADSVKGRFTISRDNSKNTLYLQMNSLRAEDTAVYYCAKDRAYGDYVGWNGFDYWGQGTLVTVSS VL: EIVLTQSPATLSLSPGERATLSCRASQSISSFLAWYQQKPGQAPRLLIYDASYRATGIPARFSGSGSGTDFTLTISSLEPEDFAVYYCQQRGNWPITFGQGTRLEIK"
,,,0.7,> 5,,,,"M0299-C09 (Fab, V domains shown, sFab; variable domains only; also called M299-C09) VH: EVQLLESGGGLVQPGGSLRLSCAASGFTFSNYPMWWVRQAPGKGLEWVSYIVPSGGATFYADSVKGRFTISRDNSKNTLYLQMNSLRAEDTAVYYCAKDRAYGDYVGWNGFDYWGQGTLVTVSS VL: DIQMTQSPATLSLSPGERATLSCRASQSISSFLAWYQQKPGQAPRLLIYDASYRATGIPARFSGSGSGTDFTLTISSLEPEDYAVYYCQQRGNWPITFGQGTRLEIK"
,,,0.2,1.7,0.6,1.7,,"M0299-A12 (Fab, V domains shown, sFab; variable domains only; also called M299-A12) VH: EVQLLESGGGLVQPGGSLRLSCAASGFTFSHYPMWWVRQAPGKGLEWVSYISSSGGGTFYADSVKGRFTISRDNSKNTLYLQMNSLRAEDTAVYYCAKDRAYGDYVGWNGFDYWGQGTLVTVSS VL: DIQMTQSPATLSLSPGERATLSCRASQSISSFLAWYQQKPGQAPRLLIYDASYRATGIPARFSGSGSGTDFTLTISSLEPEDYAVYYCQQRGNWPITFGQGTRLEIK"
,,,0.6,,0.8,2.7,,"M0273-A11 (Fab, V domains shown, sFab; variable domains only; also called M273-A11) VH: EVQLLESGGGLVQPGGSLRLSCAASGFTFSRYDMWWVRQAPGKGLEWVSVISPSGGATFYADSVKGRFTISRDNSKNTLYLQMNSLRAEDTAVYYCAKDRAYGDYVGWNGFDYWGQGTLVTVSS VL: DIQMTQSPATLSLSPGERATLSCRASQSISSFLAWYQQKPGQAPRLLIYDASYRATGIPARFSGSGSGTDFTLTISSLEPEDYAVYYCQQRGNWPITFGQGTRLEIK"
,,,1,1.2,1.7,> 10,,"M0301-D12 (Fab, V domains shown, sFab; variable domains only; also called M301-D12) VH: EVQLLESGGGLVQPGGSLRLSCAASGFTFSMYDMWWVRQAPGKGLEWVSVIYSSGGYTSYADSVKGRFTISRDNSKNTLYLQMNSLRAEDTAVYYCAKDRAYGDYVGWNGFDYWGQGTLVTVSS VL: DIQMTQSPATLSLSPGERATLSCRASQSISSFLAWYQQKPGQAPRLLIYDASYRATGIPARFSGSGSGTDFTLTISSLEPEDYAVYYCQQRGNWPITFGQGTRLEIK"
0.14,0.42,0.22,,,,,,"X0106-C03 (antibody, V domains shown, Produced and tested as IgG1; germlined, optimized version of M0274-G08; printed as X0106-C04 in some sentences; also called X0106-C04) VH: EVQLLESGGGLVQPGGSLRLSCAASGFTFSVYDMWWVRQAPGKGLEWVSVIYPSGGATYYADSVKGRFTISRDNSKNTLYLQMNSLRAEDTAVYYCAKDRAYGDYVGWNGFDYWGQGTLVTVSS VL: EIVLTQSPATLSLSPGERATLSCRASQSISSFLAWYQQKPGQAPRLLIYDASYRATGIPARFSGSGSGTDFTLTISSLEPEDFAVYYCQQRGNWPITFGQGTRLEIK"
,,,0.7,,,,,"M0273-B10 (Fab, V domains shown, sFab; variable domains only; also called M273-B10) VH: EVQLLESGGGLVQPGGSLRLSCAASGFTFSKYAMIWVRQAPGKGLEWVSWIPPSGGYTSYADSVKGRFTISRDNSKNTLYLQMNSLRAEDTAVYYCAKDRAYGDYVGWNGFDYWGQGTLVTVSS VL: DIQMTQSPATLSLSPGERATLSCRASQSISSFLAWYQQKPGQAPRLLIYDASYRATGIPARFSGSGSGTDFTLTISSLEPEDYAVYYCQQRGNWPITFGQGTRLEIK"
,,,0.9,,1,2,,"M0273-C10 (Fab, V domains shown, sFab; variable domains only; also called M273-C10) VH: EVQLLESGGGLVQPGGSLRLSCAASGFTFSFYPMWWVRQAPGKGLEWVSYIYPSGGATFYADSVKGRFTISRDNSKNTLYLQMNSLRAEDTAVYYCAKDRAYGDYVGWNGFDYWGQGTLVTVSS VL: DIQMTQSPATLSLSPGERATLSCRASQSISSFLAWYQQKPGQAPRLLIYDASYRATGIPARFSGSGSGTDFTLTISSLEPEDYAVYYCQQRGNWPITFGQGTRLEIK"
,,,0.4,,,,,"M0272-H08 (Fab, V domains shown, sFab; variable domains only; also called M272-H08) VH: EVQLLESGGGLVQPGGSLRLSCAASGFTFSAYDMWWVRQAPGKGLEWVSVIYPSGGTTFYADSVKGRFTISRDNSKNTLYLQMNSLRAEDTAVYYCAKDRAYGDYVGWNGFDYWGQGTLVTVSS VL: DIQMTQSPATLSLSPGERATLSCRASQSISSFLAWYQQKPGQAPRLLIYDASYRATGIPARFSGSGSGTDFTLTISSLEPEDYAVYYCQQRGNWPITFGQGTRLEIK"
,,,0.9,1,,,2.8,"M0306-D04 (Fab, V domains shown, sFab; variable domains only; also called M306-D04) VH: EVQLLESGGGLVQPGGSLRLSCAASGFTFSLYPMWWVRQAPGKGLEWVSSIYPSGGATFYADSVKGRFTISRDNSKNTLYLQMNSLRAEDTAVYYCAKDRAYGDYVGWNGFDYWGQGTLVTVSS VL: DIQMTQSPATLSLSPGERATLSCRASQSISSFLAWYQQKPGQAPRLLIYDASYRATGIPARFSGSGSGTDFTLTISSLEPEDYAVYYCQQRGNWPITFGQGTRLEIK"
,,,0.3,0.9,0.4,0.5,1,"M0275-E12 (Fab, V domains shown, sFab; variable domains only; also called M275-E12) VH: EVQLLESGGGLVQPGGSLRLSCAASGFTFSHYDMWWVRQAPGKGLEWVSVIYSSGGFTGYADSVKGRFTISRDNSKNTLYLQMNSLRAEDTAVYYCAKDRAYGDYVGWNGFDYWGQGTLVTVSS VL: DIQMTQSPATLSLSPGERATLSCRASQSISSFLAWYQQKPGQAPRLLIYDASYRATGIPARFSGSGSGTDFTLTISSLEPEDYAVYYCQQRGNWPITFGQGTRLEIK"
,,,0.3,0.5,0.5,1,,"M0301-A09 (Fab, V domains shown, sFab; variable domains only; also called M301-A09) VH: EVQLLESGGGLVQPGGSLRLSCAASGFTFSYYDMWWVRQAPGKGLEWVSVIYPSGGYTAYADSVKGRFTISRDNSKNTLYLQMNSLRAEDTAVYYCAKDRAYGDYVGWNGFDYWGQGTLVTVSS VL: DIQMTQSPATLSLSPGERATLSCRASQSISSFLAWYQQKPGQAPRLLIYDASYRATGIPARFSGSGSGTDFTLTISSLEPEDYAVYYCQQRGNWPITFGQGTRLEIK"
0.15,0.3,0.1,,,,,,"X0106-F05 (antibody, V domains shown, Produced and tested as IgG1; germlined, optimized version of M0307-F04) VH: EVQLLESGGGLVQPGGSLRLSCAASGFTFSLYDMWWVRQAPGKGLEWVSVIYSSGGYTGYADSVKGRFTISRDNSKNTLYLQMNSLRAEDTAVYYCAKDRAYGDYVGWNGFDYWGQGTLVTVSS VL: EIVLTQSPATLSLSPGERATLSCRASQSISSFLAWYQQKPGQAPRLLIYDASYRATGIPARFSGSGSGTDFTLTISSLEPEDFAVYYCQQRGNWPITFGQGTRLEIK"
,,,0.6,,0.6,1,,"M0273-G07 (Fab, V domains shown, sFab; variable domains only; also called M273-G07) VH: EVQLLESGGGLVQPGGSLRLSCAASGFTFSHYDMWWVRQAPGKGLEWVSVIYPSGGPTYYADSVKGRFTISRDNSKNTLYLQMNSLRAEDTAVYYCAKDRAYGDYVGWNGFDYWGQGTLVTVSS VL: DIQMTQSPATLSLSPGERATLSCRASQSISSFLAWYQQKPGQAPRLLIYDASYRATGIPARFSGSGSGTDFTLTISSLEPEDYAVYYCQQRGNWPITFGQGTRLEIK"
